The data set deals with RIN (RIPENING INHIBITOR, MADS box) (Solanum lycopersicum, UniProt Q8S4L4 1-242). In words: EMSA; 10 mM MgCl2; 20 mM HEPES pH 7.5, 20% glycerol, 0.05 ug poly(dI-dC), 10 mM MgCl2, 2.5 mM EDTA, 2.5 mM DTT, 25 mM NaCl, 25 C, 30 min; 6% native PAGE 0.5x TBE. The note with it: protein: recombinant; chain copies: 2; label: 32P (alpha-32P dCTP Klenow fill-in); filled-in ends. Background: A gel shift assay detects complexes by their altered migration in electrophoresis.
RIN (RIPENING INHIBITOR, MADS box), sequence (Q8S4L4 entry or part of it): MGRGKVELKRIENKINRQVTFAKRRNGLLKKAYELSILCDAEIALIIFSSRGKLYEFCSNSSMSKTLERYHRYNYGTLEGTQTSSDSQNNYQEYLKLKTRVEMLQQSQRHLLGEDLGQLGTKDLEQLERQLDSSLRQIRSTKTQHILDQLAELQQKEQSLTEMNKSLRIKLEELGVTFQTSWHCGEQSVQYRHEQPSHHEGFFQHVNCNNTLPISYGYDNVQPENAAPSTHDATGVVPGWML

B1: alpha-Man promoter fragment MD4 (187 bp) (dsDNA)
DNA 1: GAAGACTTCACAAATCTTGATTTTTGAATACGACCCTTTAGTATTAAGTTTTCCAATTAATCTTGTAGGTCCATTGGCTTTGATTCCCTTTCTTGATTTATCTACAAAAATTTAGGCTATTTATAGAGATTTGGGGTTTATGGTTTAGTACATTCTCTTTCAGTGAACACTCTCAGCAATGGTGGAA
DNA 2: TTCCACCATTGCTGAGAGTGTTCACTGAAAGAGAATGTACTAAACCATAAACCCCAAATCTCTATAAATAGCCTAAATTTTTGTAGATAAATCAAGAAAGGGAATCAAAGCCAATGGACCTACAAGATTAATTGGAAAACTTAATACTAAAGGGTCGTATTCAAAAATCAAGATTTGTGAAGTCTTC
For the molecule B1, the binding result is reported as “binds”.

(Values after PMC4720780, “Fruit Ripening Regulation of α-Mannosidase Expression by the MADS Box Transcription Factor RIPENING INHIBITOR and Ethylene”.)
